Laboratory results: PMC5892887

Legend:
[1] = target: Core domain of bacteriophage T4 gene 32 protein (*III; protein minus both N- and C-domains) (bacteriophage T4) (UniProt P03695); assay: cross-linking + other: MALDI mass spectrometry; MALDI mass-spectroscopic analysis of the EDC/NHS cross-linked reaction mixture of CTD and core domain
[2] = target: Core domain of bacteriophage T4 gene 32 protein (*III; protein minus both N- and C-domains) (bacteriophage T4) (UniProt P03695); assay: cross-linking; EDC/NHS zero-length cross-linking in solution, read by SDS-PAGE; 20 uM CTD and 4 uM core domain (*III) (5:1), 40 mM MES pH 6.0, 5% glycerol, 0.5 mM EDC, 1.25 mM NHS, room temperature; also with rising p(dT)7 or NaCl
1-295 (bacteriophage T4) = assay: single-molecule DNA stretching; conditions: Stopped-flow: 10 mM Tris-HCl pH 8.3, 0.1 mM Na2EDTA, 25 °C, NaCl varied (0.02 M for typical traces); DNA stretching: 0.1 M Na+
[3] = tested on: ΔPR201 (bacteriophage T4); assay: single-molecule DNA stretching; conditions: Stopped-flow: 10 mM Tris-HCl pH 8.3, 0.1 mM Na2EDTA, 25 °C, NaCl varied (0.02 M for typical traces); DNA stretching: 0.1 M Na+
[4] = tested on: *I (gp32 lacking C-domain) (bacteriophage T4); assay: single-molecule DNA stretching; conditions: Stopped-flow: 10 mM Tris-HCl pH 8.3, 0.1 mM Na2EDTA, 25 °C, NaCl varied (0.02 M for typical traces); DNA stretching: 0.1 M Na+
[5] = tested on: gp32 (full-length gene 32 protein) (bacteriophage T4); assay: single-molecule DNA stretching; conditions: Stopped-flow: 10 mM Tris-HCl pH 8.3, 0.1 mM Na2EDTA, 25 °C, NaCl varied (0.02 M for typical traces); DNA stretching: 0.1 M Na+

Row | Substance | stoichiometry N [1] | percent inhibition of cross-linking at [p(dT)7]:[core domain] of 1 [2] [%] | percent inhibition of cross-linking with 30 mM NaCl [2] [%] | Ka (1-295 (bacteriophage T4)) [M⁻¹] | Ka [3] [M⁻¹] | Ka [4] [M⁻¹] | Ka [5] [M⁻¹]
1 | C-terminal domain (CTD) of bacteriophage T4 gene 32 protein (domain or fragment) | 1 | 50 | 50 | – | – | – | –
2 | λ-DNA, double-stranded | – | – | – | 5950 | 4390 | – | –
3 | λ-DNA, single-stranded (force-melted) | – | – | – | 99300 | 102000 | 1.5e+06 | 33600
